# Data as given in patent US20050118674A1, “Engineering of Controlled Deamidation Rates in Peptides, Proteins, and Similar Structures” (priority 2003, published 2005).
# Where no end group is shown, it is not given here.
# Experiment: First-order nonenzymatic deamidation of pentapeptides in Tris buffer
# Format: physicochemical
# Details: pH 7.4, 37.0° C., 0.15 M Tris HCl; Asn pentapeptides
# Procedure, shortened: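 Pentapeptides containing Asn or Gln in varied flanking sequences incubated at 37° C., pH 7.4, 0.15 M Tris buffer; first-order deamidation rates measured. Some Asn values estimated from remaining data; many Gln values derived from surface fitting rather than measured.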
row,Substance,First-Order Deamidation Halftimes of GlyXxxAsnYyyGly
1,GlyHisAsnHisGly (GHNHG; printed: GlyHisAsnHisGly),10.7 days
2,GlyAspAsnAspGly (GDNDG; printed: GlyAspAsnAspGly),29.4 days
3,GlyArgAsnPheGly (GRNFG; printed: GlyArgAsnPheGly),68.3 days
4,GlyAmCysAsnSerGly (CNSG; not fully specified (N-terminus); printed as GlyAmCysAsnSerGly),15.4 days
5,GlyPheAsnTyrGly (GFNYG; printed: GlyPheAsnTyrGly),75.1 days
6,GlyAmCysAsnThrGly (CNTG; not fully specified (N-terminus); printed as GlyAmCysAsnThrGly),41.7 days
7,GlyLeuAsnCysGly (GLNCG; printed: GlyLeuAsnCysGly),53.5 days
8,GlyTrpAsnSerGly (GWNSG; printed: GlyTrpAsnSerGly),15.5 days
9,GlyAlaAsnCysGly (GANCG; printed: GlyAlaAsnCysGly),63.7 days
10,GlyAlaAsnAmCysGly,40.6 days
11,GlyHisAsnLysGly (GHNKG; printed: GlyHisAsnLysGly),50.2 days
12,GlyCysAsnMetGly (GCNMG; printed: GlyCysAsnMetGly),64.5 days
13,GlyTyrAsnValGly (GYNVG; printed: GlyTyrAsnValGly),241 days
14,GlyHisAsnThrGly (GHNTG; printed: GlyHisAsnThrGly),47.2 days
15,GlyArgAsnGluGly (GRNEG; printed: GlyArgAsnGluGly),68.3 days
16,GlyGluAsnPheGly (GENFG; printed: GlyGluAsnPheGly),70.2 days
17,GlyLeuAsnValGly (GLNVG; printed: GlyLeuAsnValGly),294 days
18,GlyCysAsnGluGly (GCNEG; printed: GlyCysAsnGluGly),48.3 days
19,GlyAspAsnAmCysGly,45.8 days
20,GlyGluAsnLysGly (GENKG; printed: GlyGluAsnLysGly),77.8 days

row,Substance,First-Order Deamidation Halftimes of GlyXxxAsnYyyGly
1,GlyArgAsnMetGly (GRNMG; printed: GlyArgAsnMetGly),74.4 days
2,GlyGluAsnHisGly (GENHG; printed: GlyGluAsnHisGly),9.0 days
3,GlyCysAsnGlyGly (GCNGG; printed: GlyCysAsnGlyGly),1.14 days
4,GlyThrAsnThrGly (GTNTG; printed: GlyThrAsnThrGly),50.0 days
5,GlyPheAsnMetGly (GFNMG; printed: GlyPheAsnMetGly),58.6 days
6,GlyAspAsnGlyGly (GDNGG; printed: GlyAspAsnGlyGly),1.53 days
7,GlyAspAsnAlaGly (GDNAG; printed: GlyAspAsnAlaGly),24.0 days
8,GlyAlaAsnGlyGly (GANGG; printed: GlyAlaAsnGlyGly),1.05 days
9,GlySerAsnCysGly (GSNCG; printed: GlySerAsnCysGly),60.2 days
10,GlyMetAsnAspGly (GMNDG; printed: GlyMetAsnAspGly),26.4 days
11,GlyLeuAsnHisGly (GLNHG; printed: GlyLeuAsnHisGly),10.7 days
12,GlyGlyAsnAmCysGly,27.6 days
13,GlyMetAsnGluGly (GMNEG; printed: GlyMetAsnGluGly),72.4 days
14,GlyCysAsnIleGly (GCNIG; printed: GlyCysAsnIleGly),304 days
15,GlyValAsnGluGly (GVNEG; printed: GlyValAsnGluGly),64.8 days
16,GlyMetAsnHisGly (GMNHG; printed: GlyMetAsnHisGly),10.2 days
17,GlyLysAsnProGly (GKNPG; printed: GlyLysAsnProGly),4940 days
18,GlyPheAsnAlaGly (GFNAG; printed: GlyPheAsnAlaGly),24.2 days
19,GlyPheAsnHisGly (GFNHG; printed: GlyPheAsnHisGly),10.2 days
20,GlyHisAsnIleGly (GHNIG; printed: GlyHisAsnIleGly),327 days

# Same assay, conditions: pH 7.4, 37.0 ° C., 0.15 M Tris HCl; Gln pentapeptides; 52 values measured, rest derived from surface fitting
row,Substance,First-Order Deamidation Halftimes of GlyXxxGlnYyyGly
1,GlyAspGlnTyrGly (GDQYG; printed: GlyAspGlnTyrGly),13000 days
2,GlyMetGlnTyrGly (GMQYG; printed: GlyMetGlnTyrGly),8200 days
3,GlyAspGlnLysGly (GDQKG; printed: GlyAspGlnLysGly),4600 days
4,GlyTrpGlnArgGly (GWQRG; printed: GlyTrpGlnArgGly),8300 days
5,GlyArgGlnArgGly (GRQRG; printed: GlyArgGlnArgGly),2300 days
6,GlyPheGlnGluGly (GFQEG; printed: GlyPheGlnGluGly),8100 days
7,GlyPheGlnMetGly (GFQMG; printed: GlyPheGlnMetGly),5100 days
8,GlyProGlnProGly (GPQPG; printed: GlyProGlnProGly),8900 days
9,GlyValGlnLysGly (GVQKG; printed: GlyValGlnLysGly),5200 days
10,GlyGluGlnArgGly (GEQRG; printed: GlyGluGlnArgGly),5200 days
11,GlyArgGlnValGly (GRQVG; printed: GlyArgGlnValGly),5800 days
12,GlyIleGlnProGly (GIQPG; printed: GlyIleGlnProGly),10000 days
13,GlyArgGlnLysGly (GRQKG; printed: GlyArgGlnLysGly),4000 days
14,GlyIleGlnArgGly (GIQRG; printed: GlyIleGlnArgGly),7200 days
15,GlyGluGlnIleGly (GEQIG; printed: GlyGluGlnIleGly),4200 days
16,GlyValGlnTyrGly (GVQYG; printed: GlyValGlnTyrGly),9700 days
17,GlyLeuGlnGlyGly (GLQGG; printed: GlyLeuGlnGlyGly),670 days
18,GlyGlyGlnSerGly (GGQSG; printed: GlyGlyGlnSerGly),5700 days
19,GlyAlaGlnAspGly (GAQDG; printed: GlyAlaGlnAspGly),7400 days
20,GlyArgGlnLeuGly (GRQLG; printed: GlyArgGlnLeuGly),5400 days
21,GlyAlaGlnLysGly (GAQKG; printed: GlyAlaGlnLysGly),5700 days
22,GlyLeuGlnMetGly (GLQMG; printed: GlyLeuGlnMetGly),4800 days
23,GlyLysGlnThrGly (GKQTG; printed: GlyLysGlnThrGly),4100 days
24,GlyGlyGlnIleGly (GGQIG; printed: GlyGlyGlnIleGly),6300 days
25,GlyLysGlnSerGly (GKQSG; printed: GlyLysGlnSerGly),4200 days
26,GlyThrGlnCysGly (GTQCG; printed: GlyThrGlnCysGly),1000 days
27,GlyMetGlnSerGly (GMQSG; printed: GlyMetGlnSerGly),4100 days
28,GlyCysGlnSerGly (GCQSG; printed: GlyCysGlnSerGly),3800 days
29,GlyAlaGlnTyrGly (GAQYG; printed: GlyAlaGlnTyrGly),10000 days
